In the assay the target is Fzd of the reconstituted xWnt8-Fzd complexes (Fzd4 and FZD5) in nanodiscs.

B1: Xenopus laevis Wnt8 (ligand)
chain: AWSVNNFLMTGPKAYLTYSASVAVGAQNGIEECKYQFAWERWNCPESTLQLATHNGLRSATRETSFVHAISSAGVMYTLTRNCSMGDFDNCGCDDSRNGRIGGRGWVWGGCSDNAEFGERISKLFVDGLETGQDARALMNLHNNEAGRLAVKETMKRTCKCHGISGSCSIQTCWLQLAEFRDIGNHLKIKHDQALKLEMDKRKMRSGNSADNRGAIADAFSSVAGSELIFLEDSPDYCLKNISLGLQGTEGRECLQSGKNLSQWERRSCKRLCTDCGLRVEEKKTEIISSCNCKFHWCCTVKCEQCKQVVIKHFCARRERDSNMLNTKRKNRGHRR
The molecule B1 displayed an occupancy (percent Wnt-bound Fzd after reconstitution) of 30 to 40%.

Values taken from PMC9528458.
